Measurements published in patent publication US20240115742A1, “FLUORINATED FIBERS FOR MULTIMODAL 1H AND 19F MRI, ULTRASOUND, FLUORESCENCE DETECTION AND CONFORMATIONAL AND TEMPERATURE DETECTION BY 19F MRS” (New York University, priority 2022, published 2024).
Like-named read-outs stand apart in the source and are kept apart here. Square brackets hold non-standard residues; d marks the D form. Ends that are not written are not given here. LTF = trifluoroleucine

Assays:
[1] = CD temperature scans (melting temperature); format: physicochemical
Description: Circular Dichroism Spectroscopy. Secondary structure was first assessed using the Jasco J-815 CD spectrometer with a PTC-423S single position Peltier temperature control system. Wavelength scans were performed from 190 to 250 nm using 15 μM samples at 1 nm step sizes at 25° C. Temperature scans were performed at α-helical minimum 222 nm from 20 to 85° C. The mean residue ellipticity (MRE) was calculated as described previously. MRE at 222 nm and 208 nm and their ratios were used to assess relative helicity.
Circular Dichroism Spectroscopy. The secondary structure of Q2LTF and QLTF was assessed using a Jasco J-815 circular dischroism (CD) spectrometer with a PTC-423S single position Peltier temperature control system. Wavelength scans were performed from 195 to 250 nm at 1 nm step sizes by diluting the protein into water (at approximately 10 μM) in order to minimize the effects of sodium chloride. […] The mean residue ellipticity (MRE) was calculated as described.

[2] = ATR-FTIR peak deconvolution of secondary structure; format: physicochemical
Description: Attenuated Total Reflectance-Fourier Transform Infrared Spectroscopy. Secondary structure of protein fiber variants was confirmed using attenuated total reflectance-Fourier transform infrared (ATR-FTIR) spectroscopy using the Nicolet 6700 Fourier Transform Infrared Spectrometer equipped with a diamond ATR accessory and a mercury cadmium telluride (MCT)-A detector. Spectra were collected for 5 μL of 500 μM protein from 4000-400 cm^−1 with 0.5 cm^−1 increments at room temperature (RT). For CCM bound protein, protein was bound at a final concentration of 500 μM and saturated with CCM as determined by fluorescent spectroscopic drug binding with a final 1% v/v DMSO. Sample spectra were normalized using buffer background and analyzed from 1700-1600 cm^−1 corresponding to the amide I region. Peaks were deconvoluted using Gaussian functions in PeakFit software until the goodness of fit reached r^2≥0.99. Peaks were associated with secondary structure were determined by methods known in the art.
(§1) Attenuated Total Reflectance-Fourier Transform Infrared Spectroscopy. Secondary structure of Q2 protein was confirmed using attenuated total reflectance-Fourier transform infrared (ATR-FTIR) spectroscopy using the Nicolet 6700 Fourier Transform Infrared Spectrometer equipped with a diamond ATR accessory and a mercury cadmium telluride (MCT)-A detector. Spectra were collected for 5 μL of 2 mM protein from 4000-400 cm^−1 with 0.5 cm^−1 increments. Sample spectra were normalized using buffer background and analyzed from 1700-1600 cm^−1 corresponding to the amide I region. Peaks were deconvoluted using Gaussian functions in PeakFit software until the goodness of fit reached r^2>0.99.
as §1, with “of Q2LTF and QLTF” for “of Q2”, “using a” for “using the”, “of 1” for “of 2”, “with 4.0” for “with 0.5”, “reached r^2≥0.99.” for “reached r^2>0.99.”
Attenuated Total Reflectance-Fourier Transform Infrared Spectroscopy. Secondary structure before (solution) and after gelation (gel) was also assessed by peak deconvolution of attenuated total reflectance-Fourier transform infrared (ATR-FTIR) spectra. ATR-FTIR measurements were performed using a Nicolet 6700 Fourier Transform Infrared Spectrometer equipped with a mercury cadmium telluride (MCT)-A detector. Spectra were collected for 5 μL samples of protein at 2 mM from 4000-400 cm^−1 with a 4.0 cm^−1 resolution, normalized, and buffer-subtracted prior to analysis from 1700-1600 cm^−1, corresponding to the amide I region. ATR-FTIR measurements were performed immediately after concentration to 2 mM for solution measurements and after. Peaks were deconvoluted using Gaussian functions in PeakFit software until the goodness of fit reached r^2≥0.99.

[3] = Confocal microscopy of CCM-bound fibers; format: physicochemical; settings: 50 μM protein saturated with CCM, pH 4.0
Description: Confocal Microscopy. Protein bound to CCM was studied by measuring 50 μM protein samples saturated with CCM as determined by fluorescent spectroscopic drug binding with a final 1% v/v DMSO (or 2×Kd). 10 μL of protein was added to a micro slide and a 22×22 mm #1 microscope cover glass. Slides were inverted and imaged using a Leica TCS SP8 X Laser Confocal Microscope using a dry 10× objective at RT. CCM was excited using a 460 nm line of the laser, and images were taken using a 470 to 550 nm detection window.
Confocal Microscopy. Q2LTF was diluted to 50 μM and saturated with 40 μM of curcumin (solubilized in DMSO) as determined by the binding affinity in drug-binding experiments. […] 5 μL of sample was deposited onto a microslide and covered with a 22×22 mm #1 microscope cover glass. Images were taken with a Leica TCS SP8 X laser confocal microscope using a dry 10× objective at RT. Samples were excited at 460 nm and images were taken with a 470-550 nm detection window.

TEM of protein fibers = format: physicochemical; settings: fibers, 50 mM NaH2PO4 pH 4.0
Description: (§2) Transmission Electron Microscopy. Transmission electron microscopy (TEM) images were taken with a FEI Talos L120C transmission electron microscope. Protein fiber samples were diluted to 50 μM and 3 μL was spotted on Formvar/carbon-coated copper grids followed by 5 μL wash with water, and 3 μL staining with 1% v/v uranyl acetate solution each with incubation times of 1 min at RT. Fibrils were sized in ImageJ software (Version 1.52q).
as §2, with “Samples” for “Protein fiber samples”, “by a” for “by”, “min. Between steps, filter paper was used to wick the grids. Following imaging, fibrils” for “min at RT. Fibrils”

[4] = previous studies, cited from earlier work

For “C2: C variant with redistributed electrostatic patches, SEQ ID NO: 22 (MRGSHHHHHHGSIEGRMQLAKHMLKELQKTNALQSVRTLLQQQVEEITQLKETVENSDSS) [Protein C2]”, which melting temperature ([1]; CCM-bound, pH 4.0) is on record?
Its melting temperature is 69.6±7.8 °C.

What about the melting temperature ([1]; native, 50 mM NaH2PO4 pH 4.0) of the same molecule?
The melting temperature was 49.4±1.1 °C.

What about the aggregated strands ([2]; native) of the same molecule?
Its aggregated strands is 5.3%.

What about the “antiparallel β-sheet/aggregated strands” value ([2]; native) of the same molecule?
The value was 15.0%.

And the aggregated strands ([2]; w/CCM)?
The aggregated strands was 9.0%.

What about the “antiparallel β-sheet/aggregated strands” value ([2]; w/CCM) of the same molecule?
Its value is 4.8%.

What about the “fiber diameter after CCM binding (confocal)” value [3] of the same molecule?
Its value is 6.89±2.54 μm.

What about the “average protein fiber diameter (TEM)” value (TEM of protein fibers) of the same molecule?
The value was 73±18 nm.

Which melting temperature [4] does the source give for “QLTF: Q with leucines replaced by trifluoroleucine, SEQ ID NO: 19 (MRGSHHHHHHGSIEGRVKEITF[LTF]KNTAPQM[LTF]RE[LTF]QETNAA[LTF]QDVRE[LTF][LTF]RQQSK[LTF]; ends and bridges not checked) [reference compound]” here?
The melting temperature was 52 °C.

And the “aggregated strands” value ([2]; fluorinated constructs, Tris buffer)?
The value was 17.4 % composition.

B1: C: cartilage oligomeric matrix protein coiled-coil with His tag, SEQ ID NO: 21 (protein)
chain: MRGSHHHHHHGSIEGRAPQMLRELQETNAALQDVRELLRQQVKEITFLKNTVMESDASGKL
modifications: His tag
Which melting temperature ([4]; Na2HPO4 pH 8.0) does the source give for B1 here?
The melting temperature was 41-42 °C.

And the melting temperature ([1]; CCM-bound, pH 4.0)?
The melting temperature was 51.8±4.3 °C.

What about the melting temperature ([1]; native, 50 mM NaH2PO4 pH 4.0) of the same molecule?
The melting temperature was 56.0±2.6 °C.

What about the aggregated strands ([2]; native) of the same molecule?
The aggregated strands was 10.0%.

What about the “antiparallel β-sheet/aggregated strands” value ([2]; native) of the same molecule?
The value was 11.5%.

And the aggregated strands ([2]; w/CCM)?
Its aggregated strands is 20.8%.

And the “antiparallel β-sheet/aggregated strands” value ([2]; w/CCM)?
Its value is 0.0%.

And the “fiber diameter after CCM binding (confocal)” value [3]?
Its value is 4.91±1.49 μm.

What about the “average protein fiber diameter (TEM)” value (TEM of protein fibers) of the same molecule?
The value was 47±22 nm.
